The results in this text go back to paper PMC7566517.

The target of this test is HER3 on HER3-overexpressing HEK293 cells (human) (UniProt P21860). Description: flow cytometry on cells; stable HEK293 cells expressing HER3 or HER4; purified NRG-1 mutants at 1 and 10 μg/mL, 4 °C, 1 h; goat antihuman Alexa Fluor 647. (A flow cytometer gives signals particle by particle.)
Chain of HER3 on HER3-overexpressing HEK293 cells (human) (P21860 20-1342): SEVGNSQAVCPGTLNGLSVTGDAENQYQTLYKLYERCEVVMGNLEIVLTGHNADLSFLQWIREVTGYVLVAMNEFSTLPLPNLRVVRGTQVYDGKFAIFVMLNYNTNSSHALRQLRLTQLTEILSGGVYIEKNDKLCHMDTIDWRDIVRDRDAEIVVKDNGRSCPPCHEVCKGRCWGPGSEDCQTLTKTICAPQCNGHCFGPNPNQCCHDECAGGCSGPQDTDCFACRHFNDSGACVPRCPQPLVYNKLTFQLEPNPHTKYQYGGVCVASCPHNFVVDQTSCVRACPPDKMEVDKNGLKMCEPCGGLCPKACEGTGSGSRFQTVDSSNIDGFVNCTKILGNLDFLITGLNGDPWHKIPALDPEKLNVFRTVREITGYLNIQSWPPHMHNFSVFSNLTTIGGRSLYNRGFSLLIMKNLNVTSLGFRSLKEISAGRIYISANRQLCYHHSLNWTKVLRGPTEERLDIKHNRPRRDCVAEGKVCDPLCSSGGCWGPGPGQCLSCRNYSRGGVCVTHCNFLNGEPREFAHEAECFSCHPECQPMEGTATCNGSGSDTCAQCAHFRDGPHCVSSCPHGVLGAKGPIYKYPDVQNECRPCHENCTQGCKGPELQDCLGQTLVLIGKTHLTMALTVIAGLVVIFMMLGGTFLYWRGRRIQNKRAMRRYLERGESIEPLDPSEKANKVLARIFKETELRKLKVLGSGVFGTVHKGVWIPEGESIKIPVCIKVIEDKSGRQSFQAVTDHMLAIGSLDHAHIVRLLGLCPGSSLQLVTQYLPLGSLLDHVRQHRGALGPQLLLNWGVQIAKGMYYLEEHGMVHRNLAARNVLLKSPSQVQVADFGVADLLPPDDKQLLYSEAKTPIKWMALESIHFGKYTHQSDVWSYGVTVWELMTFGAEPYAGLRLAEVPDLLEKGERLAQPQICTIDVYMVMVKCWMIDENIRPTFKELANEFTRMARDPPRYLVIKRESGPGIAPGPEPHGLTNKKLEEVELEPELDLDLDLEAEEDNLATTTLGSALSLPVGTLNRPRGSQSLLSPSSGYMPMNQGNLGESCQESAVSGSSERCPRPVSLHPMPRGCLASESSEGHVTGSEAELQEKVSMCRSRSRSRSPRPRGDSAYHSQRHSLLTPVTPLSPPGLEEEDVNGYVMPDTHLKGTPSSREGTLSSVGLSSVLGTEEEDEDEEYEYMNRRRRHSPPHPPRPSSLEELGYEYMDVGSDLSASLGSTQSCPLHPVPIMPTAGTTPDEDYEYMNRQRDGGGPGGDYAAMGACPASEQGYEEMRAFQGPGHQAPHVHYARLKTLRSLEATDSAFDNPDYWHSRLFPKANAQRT
NRG1-MFc variant E8L (Fc fusion): the ratio of median binding fluorescence to the parental clone was less than 0.8.
In the case of NRG1-MFc variant H2E (Fc fusion) it was less than 0.8; in that of NRG1-MFc variant H2T (Fc fusion), less than 0.8.
For NRG1-MFc variant K24G (Fc fusion), the ratio of median binding fluorescence to the parental clone is less than 0.8.
NRG1-MFc variant P29D (Fc fusion): the ratio of median binding fluorescence to the parental clone is less than 0.8.
Take NRG1-MFc variant P29L (Fc fusion): the ratio of median binding fluorescence to the parental clone was less than 0.8.
Take NRG1-MFc variant T41A (Fc fusion): the ratio of median binding fluorescence to the parental clone is less than 0.8.
